Source: patent publication US20190015483A1 (CSL BEHRING RECOMBINANT FACILITY, published 2019)
Substitutions are numbered along the chain they refer to. Names and notes keep the numbering of the source. Values joined by “and” are separate entries in the source; they are usually repeats but may differ in a detail not shown here. Equal entries are not always repeated.

T1: recombinant Factor VIII (CSL627, rVIII-SingleChain) (Homo sapiens (Human), UniProt P00451 20-2351)
T1 construct: also called FVIII
T1 sequence: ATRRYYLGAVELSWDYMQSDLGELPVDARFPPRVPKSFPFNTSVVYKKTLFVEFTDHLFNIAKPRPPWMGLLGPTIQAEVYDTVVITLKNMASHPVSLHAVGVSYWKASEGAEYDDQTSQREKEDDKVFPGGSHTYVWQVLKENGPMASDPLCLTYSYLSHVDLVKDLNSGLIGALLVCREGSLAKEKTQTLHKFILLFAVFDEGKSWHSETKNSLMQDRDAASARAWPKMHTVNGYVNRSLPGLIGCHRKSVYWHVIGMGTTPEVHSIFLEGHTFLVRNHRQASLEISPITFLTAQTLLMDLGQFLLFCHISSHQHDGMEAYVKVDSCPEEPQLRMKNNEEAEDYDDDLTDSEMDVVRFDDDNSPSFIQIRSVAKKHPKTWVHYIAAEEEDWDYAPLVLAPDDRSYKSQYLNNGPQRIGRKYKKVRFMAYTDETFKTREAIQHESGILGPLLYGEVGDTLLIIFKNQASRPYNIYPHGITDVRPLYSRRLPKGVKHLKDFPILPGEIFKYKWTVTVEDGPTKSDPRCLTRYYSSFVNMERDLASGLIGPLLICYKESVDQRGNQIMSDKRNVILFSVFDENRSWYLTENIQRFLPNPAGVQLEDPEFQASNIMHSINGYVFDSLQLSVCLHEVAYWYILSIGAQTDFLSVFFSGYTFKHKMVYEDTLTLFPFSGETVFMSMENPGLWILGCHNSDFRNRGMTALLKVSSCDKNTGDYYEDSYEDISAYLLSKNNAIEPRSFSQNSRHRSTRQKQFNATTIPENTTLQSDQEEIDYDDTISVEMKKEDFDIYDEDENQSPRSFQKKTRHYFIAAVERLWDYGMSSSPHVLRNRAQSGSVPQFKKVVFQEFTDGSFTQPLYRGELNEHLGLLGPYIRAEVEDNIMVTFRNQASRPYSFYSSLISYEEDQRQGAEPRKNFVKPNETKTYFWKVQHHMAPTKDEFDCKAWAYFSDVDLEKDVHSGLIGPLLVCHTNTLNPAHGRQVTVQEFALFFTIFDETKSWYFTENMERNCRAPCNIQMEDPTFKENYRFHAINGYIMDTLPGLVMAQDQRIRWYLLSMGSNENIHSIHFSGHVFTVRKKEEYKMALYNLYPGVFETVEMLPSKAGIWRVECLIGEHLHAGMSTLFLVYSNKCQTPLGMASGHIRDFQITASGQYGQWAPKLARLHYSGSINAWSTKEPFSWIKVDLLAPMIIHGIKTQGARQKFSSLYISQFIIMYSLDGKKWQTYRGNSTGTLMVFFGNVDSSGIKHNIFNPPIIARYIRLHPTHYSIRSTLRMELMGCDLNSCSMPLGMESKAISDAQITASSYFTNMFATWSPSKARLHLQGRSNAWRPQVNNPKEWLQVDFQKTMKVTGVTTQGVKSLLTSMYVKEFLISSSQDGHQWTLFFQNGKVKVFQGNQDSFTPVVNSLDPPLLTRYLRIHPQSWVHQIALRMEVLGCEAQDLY

T2: recombinant Factor VIII (CSL627, rVIII-SingleChain) (Homo sapiens (Human), UniProt P00451 20-2351)
T2 construct: also called FVIII
T2 sequence: T1 sequence

B1: Hu-vWF[764-1270]-8His S764P-S766M (other)
chain: PLMCRPPMVKLVCPADNLRAEGLECTKTCQNYDLECMSMGCVSGCLCPPGMVRHENRCVALERCPCFHQGKEYAPGETVKIGCNTCVCRDRKWNCTDHVCDATCSTIGMAHYLTFDGLKYLFPGECQYVLVQDYCGSNPGTFRILVGNKGCSHPSVKCKKRVTILVEGGEIELFDGEVNVKRPMKDETHFEVVESGRYIILLLGKALSVVWDRHLSISVVLKQTYQEKVCGLCGNFDGIQNNDLTSSNLQVEEDPVDFGNSWKVSSQCADTRKVPLDSSPATCHNNIMKQTMVDSSCRILTSDVFQDCNKLVDPEPYLDVCIYDTCSCESIGDCACFCDTIAAYAHVCAQHGKVVTWRTATLCPQSCEERNLRENGYECEWRYNSCAPACQVTCQHPEPLACPVQCVEGCHAHCPPGKILDELLQTCVDPEDCPVCEVAGRRFASGKKVTLNPSDPEHCQICHCDVVNLTCEACQEPGGLVVPPTDAPVSPTTLYVEDISEPPLHDFHHHHHHHH
B2: Hu-vWF[764-1270]-8His S764P-S766L (other)
chain: B1 chain with M3L
B3: Hu-vWF[764-1270]-8His S764P-S766W (other)
chain: B1 chain with M3W
B4: Hu-vWF[764-1270]-8His S764K/S766Y (other)
chain: B1 chain with P1K, M3Y
B5: Hu-vWF[764-1270]-8His S764N/S766Y (other)
chain: B1 chain with P1N, M3Y
B6: Hu-vWF[764-1270]-8His S764L/S766Y (other)
chain: B1 chain with P1L, M3Y
B7: Hu-vWF[764-1270]-8His S764T/S766Y (other)
chain: B1 chain with P1T, M3Y
B8: Hu-vWF[764-1270]-8His S764Q/S766Y (other)
chain: B1 chain with P1Q, M3Y
B9: Hu-vWF[764-1270]-8His S764R/S766Y (other)
chain: B1 chain with P1R, M3Y
B10: Hu-vWF[764-1270]-8His S764Y/S766Y (other)
chain: B1 chain with P1Y, M3Y
B11: Hu-vWF[764-1270]-8His S764V/S766Y (other)
chain: B1 chain with P1V, M3Y
B12: Hu-vWF[764-1270]-8His S764W/S766Y (other)
chain: B1 chain with P1W, M3Y
B13: Hu-vWF[764-1270]-8His S764P-S766Y (other)
chain: B1 chain with M3Y
B14: Hu-vWF[764-1270]-8His S764M/S766Y (other)
chain: B1 chain with P1M, M3Y

The molecules below were run against recombinant Factor VIII (CSL627, rVIII-SingleChain) (Homo sapiens (Human)) (UniProt P00451) (assay: SPR, anti-His capture, FVIII injected, 37 C).

Row | Kd | koff | kon | Molecule
1 | 255 pM and 199 pM | 0.00159 s⁻¹ and 0.0025 s⁻¹ | 6.23e+06 M⁻¹ s⁻¹ and 1.25e+07 M⁻¹ s⁻¹ | Hu-vWF[764-1270]-8His dupS764/S764P/S766I (from UniProt P04275 767-1270)

Each molecule was assayed against T1, recombinant Factor VIII (CSL627, …) (assay: SPR, anti-His capture, FVIII injected, pH 5.5).

Row | Kd [pM] | koff [s⁻¹] | kon [M⁻¹ s⁻¹] | Molecule
2 | 292 | 9.16e-05 | 314000 | B1
3 | 234 | 0.000104 | 445000 | B2
4 | 172 | 4.75e-05 | 277000 | B3

What follows are molecules tested against T2, recombinant Factor VIII (CSL627, …) (assay: SPR, anti-His capture).
Protocol: Binding kinetics were investigated by surface plasmon resonance using a Biacore 4000 biosensor at 37° C. Each mutant was captured from cell culture medium to a density of 40-150 RU on a CM-5 sensor chip pre-immobilised with anti-His antibody (14,000 RU). In an initial screening study, FVIII was injected over the captured mutants for 5 minutes at 1 nM and dissociation monitored for 5 minutes.
All sensorgrams were double referenced by subtraction of signals from a reference spot (containing only immobilised anti His antibody) and from a blank injection. Binding kinetics were determined by fitting the double referenced sensorgrams to a 1:1 kinetic model.

Row | Kd [pM] | koff [s⁻¹] | kon [M⁻¹ s⁻¹] | Molecule
5 | 43.5 | 0.000822 | 1.89e+07 | B4
6 | 6.92 | 8.88e-05 | 1.28e+07 | B5
7 | 2.27 | 7.99e-05 | 3.52e+07 | B6
8 | 5.27 | 0.000136 | 2.58e+07 | B7
9 | 9.18 | 0.000109 | 1.19e+07 | B8
10 | 2.85 | 9.2e-05 | 3.23e+07 | B9
11 | 2.47 | 7.88e-05 | 3.19e+07 | B10
12 | 2.15 | 6.41e-05 | 2.99e+07 | B11
13 | 10.9 | 9.67e-05 | 8.88e+06 | B12
14 | 7.16 | 7.71e-05 | 1.08e+07 | B13
15 | 14.4 | 0.000103 | 7.15e+06 | B14

Target: T2, recombinant Factor VIII (CSL627, …)
Experiment: SPR, anti-His capture
Remark: another data set of the same source
In short: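 First, mutants in culture medium are loaded to 40-150 RU on anti-His-coated chip; next, 1 nM FVIII is passed over for 5 min and washout followed for 5 min; finally, 1:1 fitting of double-referenced data gives rate constants.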

Row | Kd [pM] | koff [s⁻¹] | kon [M⁻¹ s⁻¹] | Molecule
16 | 7.16 | 7.71e-05 | 1.08e+07 | B13
